PMC5498496

What was measured:
[1] = αIIbβ3 cell surface expression, flow cytometry; settings: glycan lost; control: wild-type αIIb with β3
[2] = eptifibatide-induced mAb binding, flow cytometry; settings: glycan lost; control: wild-type αIIb with β3
[3] = β3-K716A-mediated mAb binding, flow cytometry; settings: glycan lost; control: wild-type αIIb with active β3-K716A
[4] = surface expression by mAbs 10E5, AP2, AP3, flow cytometry; settings: glycan lost; control: wild-type αIIbβ3

| Substance | expression_or_secretion [1] | structure_or_conformation [2] | also measured |
| --- | --- | --- | --- |
| integrin αIIb subunit: αIIb-N15Q | no change | – | – |
| integrin αIIb subunit: αIIb-N931Q | decreases | – | – |
| integrin αIIb subunit: αIIb-N249Q | decreases | – | – |
| integrin αIIb subunit: αIIb-N570Q | decreases | – | – |
| integrin αIIb subunit: αIIb-N249S | – | no change | structure_or_conformation [3]: no change |
| integrin αIIb subunit: αIIb-N931S | – | no change | – |
| integrin αIIb subunit: αIIb-N15S | – | no change | expression_or_secretion [4]: no change |
| integrin αIIb subunit: αIIb-N680Q | decreases | – | – |
